Measurements as given in article doi:10.1101/2025.08.31.673313 (bioRxiv, 2025).

Target: wild-type KRAS peptide on HLA-C*08:02, on peptide-pulsed cells (Homo sapiens, HLA-C*08:02)
Assay: flow cytometry on cells

B1: C8K10D5-1 Fab (Fab, V domains shown)
VH: EVQLVESGGGLVQPGRSLRLSCAASGFTFDQYAMHWVRQAPGKGLEWVSGISAYSLSIGYADSVKGRFTISRDNAKNSLYLQMNSLRAEDTAVYYCARGRSEGVYMDGMDIWGSGTLVTVSS
VL: SYVLTQPPSVSVAPGQTARITCGGNNIKYRDVHWYQQKPGQAPVLVVYQDTLRPQGIPERFSGSNSGNMATLTISRVEAGDEADYYCQVWDWDTDHWVFGGGTDLTVL
binding result: no binding (tested: 50 nM Fab)
